2 substances from patent US20240238419A1 can be followed below.

For the assay, the target named is TRAF6 (human) (UniProt Q9Y4K3). Kind of assay: cell-based or functional assay.
Chain of UniProt Q9Y4K3 (Q9Y4K3 whole entry): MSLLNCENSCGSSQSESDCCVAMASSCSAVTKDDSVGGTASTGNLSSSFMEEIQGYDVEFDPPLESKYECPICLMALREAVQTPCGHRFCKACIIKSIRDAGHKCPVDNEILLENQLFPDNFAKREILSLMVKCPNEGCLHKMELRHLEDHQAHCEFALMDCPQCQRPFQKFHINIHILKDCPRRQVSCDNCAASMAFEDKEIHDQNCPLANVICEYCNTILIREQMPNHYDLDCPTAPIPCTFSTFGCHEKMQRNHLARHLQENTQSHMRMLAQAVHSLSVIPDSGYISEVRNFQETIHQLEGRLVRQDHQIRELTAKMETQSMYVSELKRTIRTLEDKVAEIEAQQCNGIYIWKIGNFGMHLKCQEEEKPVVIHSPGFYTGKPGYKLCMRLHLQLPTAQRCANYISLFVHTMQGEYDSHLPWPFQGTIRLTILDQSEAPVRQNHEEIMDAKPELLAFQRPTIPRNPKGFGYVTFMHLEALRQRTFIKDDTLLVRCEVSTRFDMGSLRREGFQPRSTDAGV

Consider “human MALT1A E316A/E806A (from UniProt Q9UDY8 1-824) (enzyme)”, for which the activity of MALT1 detected by biotinylated MALT1 activity-based probe (bio-MALT1-ABP) pulldown, ratio of active to total MALT1, resting Jurkat T cells was 50 fold. Then “human MALT1B E795A (from UniProt Q9UDY8 2-824) (enzyme)”, with 5 fold.
